From US20160272683A1 (Novo Nordisk, published 2016)
One block for each binder: values may come before it. Numbered stars: 1 amine (or outer) side, 2 acyl side, 3 side chain; on linkers, the order of the positions; unused ones are H or OH. * marks the point of attachment. C20 diacid = O=C(O)CCCCCCCCCCCCCCCCCCC(=O)*; C18 diacid = O=C(O)CCCCCCCCCCCCCCCCC(=O)*; γGlu = O=C(O)[C@H](CCC(=O)[*:2])N[*:1]

Columns and labels:
[1] = target: T1, human calcitonin receptor on BHK570/CRE-luc cells (human, UniProt P30988 25-474); test: cell-based or functional assay
T1 sequence (looked up): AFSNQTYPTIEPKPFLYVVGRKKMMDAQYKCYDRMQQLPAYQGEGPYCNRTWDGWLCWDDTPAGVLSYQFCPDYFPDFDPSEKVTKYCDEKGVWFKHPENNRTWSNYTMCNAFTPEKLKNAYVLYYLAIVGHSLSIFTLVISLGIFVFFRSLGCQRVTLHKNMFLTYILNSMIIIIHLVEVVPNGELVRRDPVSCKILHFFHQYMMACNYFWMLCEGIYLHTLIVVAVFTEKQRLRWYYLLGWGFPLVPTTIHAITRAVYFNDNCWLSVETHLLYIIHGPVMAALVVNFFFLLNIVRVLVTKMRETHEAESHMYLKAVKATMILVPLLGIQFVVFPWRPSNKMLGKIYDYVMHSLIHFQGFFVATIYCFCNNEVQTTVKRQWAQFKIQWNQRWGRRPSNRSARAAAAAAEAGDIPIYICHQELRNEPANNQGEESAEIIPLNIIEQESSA

[2] = target: T2, human amylin 3(a) receptor (human calcitonin receptor co-expressed with RAMP-3) on BHK570/CRE-luc cells (human, UniProt P30988 25-474; O60896 24-148); test: cell-based or functional assay
T2 sequence (looked up) 1: T1 sequence (looked up)
T2 sequence (looked up) 2: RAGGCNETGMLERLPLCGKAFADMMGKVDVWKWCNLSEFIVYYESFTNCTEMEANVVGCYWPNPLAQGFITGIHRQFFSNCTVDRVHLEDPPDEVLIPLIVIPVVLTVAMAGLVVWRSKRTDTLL

B2: [N-terminal(C18 diacid-gGlu), des1, 6T, 9V, 30S, 31G]mimylin (peptide)
peptide: {C18 diacid-γGlu}-ASELTTAVLGRLSAELHELATLPRTETGSGSP-NH2
SMILES: CC(C)C[C@H](NC(=O)[C@H](CCC(=O)O)NC(=O)[C@H](Cc1c[nH]cn1)NC(=O)[C@H](CC(C)C)NC(=O)[C@H](CCC(=O)O)NC(=O)[C@H](C)NC(=O)[C@H](CO)NC(=O)[C@H](CC(C)C)NC(=O)[C@H](CCCNC(=N)N)NC(=O)CNC(=O)[C@H](CC(C)C)NC(=O)[C@@H](NC(=O)[C@H](C)NC(=O)[C@@H](NC(=O)[C@@H](NC(=O)[C@H](CC(C)C)NC(=O)[C@H](CCC(=O)O)NC(=O)[C@H](CO)NC(=O)[C@H](C)NC(=O)CC[C@H](NC(=O)CCCCCCCCCCCCCCCCC(=O)O)C(=O)O)[C@@H](C)O)[C@@H](C)O)C(C)C)C(=O)N[C@@H](C)C(=O)N[C@H](C(=O)N[C@@H](CC(C)C)C(=O)N1CCC[C@H]1C(=O)N[C@@H](CCCNC(=N)N)C(=O)N[C@H](C(=O)N[C@@H](CCC(=O)O)C(=O)N[C@H](C(=O)NCC(=O)N[C@@H](CO)C(=O)NCC(=O)N[C@@H](CO)C(=O)N1CCC[C@H]1C(N)=O)[C@@H](C)O)[C@@H](C)O)[C@@H](C)O
- hCTR funct. EC50 (pM), tested with HSA [1]: 9 pM
- hAmylin-R funct. EC50 (pM), tested with HSA [2]: 19 pM

Binder: {C18 diacid-γGlu}-ASEVSTAVLGRLSAELHELATLPRTETGSGSP-NH2 [[N-terminal(C18 diacid-gGlu), des1, 5V, 9V, 30S, 31G]mimylin]
- hCTR funct. EC50 (pM), tested with HSA [1]: 87 pM
- hAmylin-R funct. EC50 (pM), tested with HSA [2]: 356 pM

Binder: {C20 diacid-γGlu}-ASELSTAALGRLSAELHELATYPRTETGSGSY-OH [[N-terminal(C20 diacid-gGlu), des1, 23Y, 30S, 31G, 33Y, C-terminal(-)]mimylin]
- hCTR funct. EC50 (pM), tested with HSA [1]: 418 pM
- hAmylin-R funct. EC50 (pM), tested with HSA [2]: 976 pM

B4: [N-terminal(C20 diacid-gGlu), -1E, 1A, 23Y, 30S, 31G]mimylin (peptide)
peptide: {C20 diacid-γGlu}-EAASELSTAALGRLSAELHELATYPRTETGSGSP-NH2
SMILES: CC(C)C[C@H](NC(=O)[C@H](C)NC(=O)[C@H](C)NC(=O)[C@@H](NC(=O)[C@H](CO)NC(=O)[C@H](CC(C)C)NC(=O)[C@H](CCC(=O)O)NC(=O)[C@H](CO)NC(=O)[C@H](C)NC(=O)[C@H](C)NC(=O)[C@H](CCC(=O)O)NC(=O)CC[C@H](NC(=O)CCCCCCCCCCCCCCCCCCC(=O)O)C(=O)O)[C@@H](C)O)C(=O)NCC(=O)N[C@@H](CCCNC(=N)N)C(=O)N[C@@H](CC(C)C)C(=O)N[C@@H](CO)C(=O)N[C@@H](C)C(=O)N[C@@H](CCC(=O)O)C(=O)N[C@@H](CC(C)C)C(=O)N[C@@H](Cc1c[nH]cn1)C(=O)N[C@@H](CCC(=O)O)C(=O)N[C@@H](CC(C)C)C(=O)N[C@@H](C)C(=O)N[C@H](C(=O)N[C@@H](Cc1ccc(O)cc1)C(=O)N1CCC[C@H]1C(=O)N[C@@H](CCCNC(=N)N)C(=O)N[C@H](C(=O)N[C@@H](CCC(=O)O)C(=O)N[C@H](C(=O)NCC(=O)N[C@@H](CO)C(=O)NCC(=O)N[C@@H](CO)C(=O)N1CCC[C@H]1C(N)=O)[C@@H](C)O)[C@@H](C)O)[C@@H](C)O
- hCTR funct. EC50 (pM), tested with HSA [1]: 113 pM
- hAmylin-R funct. EC50 (pM), tested with HSA [2]: 181 pM

B5: [N-terminal(C20 diacid-gGlu), des1, 12H, 25H, 30S, 31G]mimylin (peptide)
peptide: {C20 diacid-γGlu}-ASELSTAALGHLSAELHELATLPHTETGSGSP-NH2
SMILES: CC(C)C[C@H](NC(=O)[C@H](C)NC(=O)[C@H](C)NC(=O)[C@@H](NC(=O)[C@H](CO)NC(=O)[C@H](CC(C)C)NC(=O)[C@H](CCC(=O)O)NC(=O)[C@H](CO)NC(=O)[C@H](C)NC(=O)CC[C@H](NC(=O)CCCCCCCCCCCCCCCCCCC(=O)O)C(=O)O)[C@@H](C)O)C(=O)NCC(=O)N[C@@H](Cc1c[nH]cn1)C(=O)N[C@@H](CC(C)C)C(=O)N[C@@H](CO)C(=O)N[C@@H](C)C(=O)N[C@@H](CCC(=O)O)C(=O)N[C@@H](CC(C)C)C(=O)N[C@@H](Cc1c[nH]cn1)C(=O)N[C@@H](CCC(=O)O)C(=O)N[C@@H](CC(C)C)C(=O)N[C@@H](C)C(=O)N[C@H](C(=O)N[C@@H](CC(C)C)C(=O)N1CCC[C@H]1C(=O)N[C@@H](Cc1c[nH]cn1)C(=O)N[C@H](C(=O)N[C@@H](CCC(=O)O)C(=O)N[C@H](C(=O)NCC(=O)N[C@@H](CO)C(=O)NCC(=O)N[C@@H](CO)C(=O)N1CCC[C@H]1C(N)=O)[C@@H](C)O)[C@@H](C)O)[C@@H](C)O
- hCTR funct. EC50 (pM), tested with HSA [1]: 123 pM
- hAmylin-R funct. EC50 (pM), tested with HSA [2]: 440 pM

B7: [N-terminal(C20 diacid-gGlu), des1, 21S, 23Y, 30S, 31G]mimylin (peptide)
peptide: {C20 diacid-γGlu}-ASELSTAALGRLSAELHELSTYPRTETGSGSP-NH2
SMILES: CC(C)C[C@H](NC(=O)[C@H](C)NC(=O)[C@H](C)NC(=O)[C@@H](NC(=O)[C@H](CO)NC(=O)[C@H](CC(C)C)NC(=O)[C@H](CCC(=O)O)NC(=O)[C@H](CO)NC(=O)[C@H](C)NC(=O)CC[C@H](NC(=O)CCCCCCCCCCCCCCCCCCC(=O)O)C(=O)O)[C@@H](C)O)C(=O)NCC(=O)N[C@@H](CCCNC(=N)N)C(=O)N[C@@H](CC(C)C)C(=O)N[C@@H](CO)C(=O)N[C@@H](C)C(=O)N[C@@H](CCC(=O)O)C(=O)N[C@@H](CC(C)C)C(=O)N[C@@H](Cc1c[nH]cn1)C(=O)N[C@@H](CCC(=O)O)C(=O)N[C@@H](CC(C)C)C(=O)N[C@@H](CO)C(=O)N[C@H](C(=O)N[C@@H](Cc1ccc(O)cc1)C(=O)N1CCC[C@H]1C(=O)N[C@@H](CCCNC(=N)N)C(=O)N[C@H](C(=O)N[C@@H](CCC(=O)O)C(=O)N[C@H](C(=O)NCC(=O)N[C@@H](CO)C(=O)NCC(=O)N[C@@H](CO)C(=O)N1CCC[C@H]1C(N)=O)[C@@H](C)O)[C@@H](C)O)[C@@H](C)O
- hCTR funct. EC50 (pM), tested with HSA [1]: 30 pM
- hAmylin-R funct. EC50 (pM), tested with HSA [2]: 58 pM

The next lines start with the values.

- hCTR funct. EC50 (pM), tested with HSA [1]: 71 pM
- hAmylin-R funct. EC50 (pM), tested with HSA [2]: 93 pM
B1: [N-terminal(C20 diacid-gGlu), des1, 23Y, 30S, 31G, 33Y]mimylin (peptide)
peptide: {C20 diacid-γGlu}-ASELSTAALGRLSAELHELATYPRTETGSGSY-NH2
SMILES: CC(C)C[C@H](NC(=O)[C@H](C)NC(=O)[C@H](C)NC(=O)[C@@H](NC(=O)[C@H](CO)NC(=O)[C@H](CC(C)C)NC(=O)[C@H](CCC(=O)O)NC(=O)[C@H](CO)NC(=O)[C@H](C)NC(=O)CC[C@H](NC(=O)CCCCCCCCCCCCCCCCCCC(=O)O)C(=O)O)[C@@H](C)O)C(=O)NCC(=O)N[C@@H](CCCNC(=N)N)C(=O)N[C@@H](CC(C)C)C(=O)N[C@@H](CO)C(=O)N[C@@H](C)C(=O)N[C@@H](CCC(=O)O)C(=O)N[C@@H](CC(C)C)C(=O)N[C@@H](Cc1c[nH]cn1)C(=O)N[C@@H](CCC(=O)O)C(=O)N[C@@H](CC(C)C)C(=O)N[C@@H](C)C(=O)N[C@H](C(=O)N[C@@H](Cc1ccc(O)cc1)C(=O)N1CCC[C@H]1C(=O)N[C@@H](CCCNC(=N)N)C(=O)N[C@H](C(=O)N[C@@H](CCC(=O)O)C(=O)N[C@H](C(=O)NCC(=O)N[C@@H](CO)C(=O)NCC(=O)N[C@@H](CO)C(=O)N[C@@H](Cc1ccc(O)cc1)C(N)=O)[C@@H](C)O)[C@@H](C)O)[C@@H](C)O

- hCTR funct. EC50 (pM), tested with HSA [1]: 37 pM
- hAmylin-R funct. EC50 (pM), tested with HSA [2]: 100 pM
B3: [N-terminal(C20 diacid-gGlu), des1, 23Y, 30S, 31G, 32A]mimylin (peptide)
peptide: {C20 diacid-γGlu}-ASELSTAALGRLSAELHELATYPRTETGSGAP-NH2
SMILES: CC(C)C[C@H](NC(=O)[C@H](C)NC(=O)[C@H](C)NC(=O)[C@@H](NC(=O)[C@H](CO)NC(=O)[C@H](CC(C)C)NC(=O)[C@H](CCC(=O)O)NC(=O)[C@H](CO)NC(=O)[C@H](C)NC(=O)CC[C@H](NC(=O)CCCCCCCCCCCCCCCCCCC(=O)O)C(=O)O)[C@@H](C)O)C(=O)NCC(=O)N[C@@H](CCCNC(=N)N)C(=O)N[C@@H](CC(C)C)C(=O)N[C@@H](CO)C(=O)N[C@@H](C)C(=O)N[C@@H](CCC(=O)O)C(=O)N[C@@H](CC(C)C)C(=O)N[C@@H](Cc1c[nH]cn1)C(=O)N[C@@H](CCC(=O)O)C(=O)N[C@@H](CC(C)C)C(=O)N[C@@H](C)C(=O)N[C@H](C(=O)N[C@@H](Cc1ccc(O)cc1)C(=O)N1CCC[C@H]1C(=O)N[C@@H](CCCNC(=N)N)C(=O)N[C@H](C(=O)N[C@@H](CCC(=O)O)C(=O)N[C@H](C(=O)NCC(=O)N[C@@H](CO)C(=O)NCC(=O)N[C@@H](C)C(=O)N1CCC[C@H]1C(N)=O)[C@@H](C)O)[C@@H](C)O)[C@@H](C)O

- hCTR funct. EC50 (pM), tested with HSA [1]: 50 pM
- hAmylin-R funct. EC50 (pM), tested with HSA [2]: 210 pM
B6: [N-terminal(C20 diacid-gGlu), des1, 23Y, 30S, 31G, 34G, C-terminal(-)]mimylin (peptide)
peptide: {C20 diacid-γGlu}-ASELSTAALGRLSAELHELATYPRTETGSGSPG-OH
SMILES: CC(C)C[C@H](NC(=O)[C@H](C)NC(=O)[C@H](C)NC(=O)[C@@H](NC(=O)[C@H](CO)NC(=O)[C@H](CC(C)C)NC(=O)[C@H](CCC(=O)O)NC(=O)[C@H](CO)NC(=O)[C@H](C)NC(=O)CC[C@H](NC(=O)CCCCCCCCCCCCCCCCCCC(=O)O)C(=O)O)[C@@H](C)O)C(=O)NCC(=O)N[C@@H](CCCNC(=N)N)C(=O)N[C@@H](CC(C)C)C(=O)N[C@@H](CO)C(=O)N[C@@H](C)C(=O)N[C@@H](CCC(=O)O)C(=O)N[C@@H](CC(C)C)C(=O)N[C@@H](Cc1c[nH]cn1)C(=O)N[C@@H](CCC(=O)O)C(=O)N[C@@H](CC(C)C)C(=O)N[C@@H](C)C(=O)N[C@H](C(=O)N[C@@H](Cc1ccc(O)cc1)C(=O)N1CCC[C@H]1C(=O)N[C@@H](CCCNC(=N)N)C(=O)N[C@H](C(=O)N[C@@H](CCC(=O)O)C(=O)N[C@H](C(=O)NCC(=O)N[C@@H](CO)C(=O)NCC(=O)N[C@@H](CO)C(=O)N1CCC[C@H]1C(=O)NCC(=O)O)[C@@H](C)O)[C@@H](C)O)[C@@H](C)O
